Read-outs that look alike come from different tables or passages of the source.
Assays:
Experiment in all cases: cell-based or functional assay
[1] = biological target: murine IL12 receptor complex (IL12Rβ1 and IL12Rβ2) on cells (murine) (UniProt Q60837)
[2] = biological target: murine IL12 receptor complex (IL12Rβ1 and IL12Rβ2) on cells (murine) (UniProt Q60837); remark: listed apart in the source
[3] = biological target: murine IL12 receptor complex (IL12Rβ1 and IL12Rβ2) on cells (murine) (UniProt Q60837); remark: listed apart in the source

Chain of murine IL12 receptor complex (IL12Rβ1 and IL12Rβ2) on cells (murine) (Q60837 20-738, chain 1 of 2): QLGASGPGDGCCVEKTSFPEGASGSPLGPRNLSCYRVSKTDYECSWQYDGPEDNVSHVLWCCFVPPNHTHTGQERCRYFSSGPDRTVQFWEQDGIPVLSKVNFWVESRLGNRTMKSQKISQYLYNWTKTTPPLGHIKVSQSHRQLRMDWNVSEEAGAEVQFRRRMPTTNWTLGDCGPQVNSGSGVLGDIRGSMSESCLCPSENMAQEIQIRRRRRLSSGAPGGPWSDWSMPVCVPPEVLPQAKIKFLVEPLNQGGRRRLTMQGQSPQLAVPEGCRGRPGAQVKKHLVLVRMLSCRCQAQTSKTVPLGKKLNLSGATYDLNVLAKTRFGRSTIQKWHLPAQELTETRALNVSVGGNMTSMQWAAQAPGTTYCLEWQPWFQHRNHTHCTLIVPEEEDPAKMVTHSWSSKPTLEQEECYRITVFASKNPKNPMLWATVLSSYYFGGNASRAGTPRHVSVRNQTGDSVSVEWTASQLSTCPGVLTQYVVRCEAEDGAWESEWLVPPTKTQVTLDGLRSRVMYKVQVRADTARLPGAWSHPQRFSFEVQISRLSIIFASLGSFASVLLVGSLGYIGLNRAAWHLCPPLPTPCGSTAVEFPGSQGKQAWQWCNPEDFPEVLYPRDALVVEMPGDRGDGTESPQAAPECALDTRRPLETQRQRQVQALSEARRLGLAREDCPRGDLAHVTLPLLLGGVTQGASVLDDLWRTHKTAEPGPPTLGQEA
Chain of murine IL12 receptor complex (IL12Rβ1 and IL12Rβ2) on cells (murine) (P97378 24-874, chain 2 of 2, further chain): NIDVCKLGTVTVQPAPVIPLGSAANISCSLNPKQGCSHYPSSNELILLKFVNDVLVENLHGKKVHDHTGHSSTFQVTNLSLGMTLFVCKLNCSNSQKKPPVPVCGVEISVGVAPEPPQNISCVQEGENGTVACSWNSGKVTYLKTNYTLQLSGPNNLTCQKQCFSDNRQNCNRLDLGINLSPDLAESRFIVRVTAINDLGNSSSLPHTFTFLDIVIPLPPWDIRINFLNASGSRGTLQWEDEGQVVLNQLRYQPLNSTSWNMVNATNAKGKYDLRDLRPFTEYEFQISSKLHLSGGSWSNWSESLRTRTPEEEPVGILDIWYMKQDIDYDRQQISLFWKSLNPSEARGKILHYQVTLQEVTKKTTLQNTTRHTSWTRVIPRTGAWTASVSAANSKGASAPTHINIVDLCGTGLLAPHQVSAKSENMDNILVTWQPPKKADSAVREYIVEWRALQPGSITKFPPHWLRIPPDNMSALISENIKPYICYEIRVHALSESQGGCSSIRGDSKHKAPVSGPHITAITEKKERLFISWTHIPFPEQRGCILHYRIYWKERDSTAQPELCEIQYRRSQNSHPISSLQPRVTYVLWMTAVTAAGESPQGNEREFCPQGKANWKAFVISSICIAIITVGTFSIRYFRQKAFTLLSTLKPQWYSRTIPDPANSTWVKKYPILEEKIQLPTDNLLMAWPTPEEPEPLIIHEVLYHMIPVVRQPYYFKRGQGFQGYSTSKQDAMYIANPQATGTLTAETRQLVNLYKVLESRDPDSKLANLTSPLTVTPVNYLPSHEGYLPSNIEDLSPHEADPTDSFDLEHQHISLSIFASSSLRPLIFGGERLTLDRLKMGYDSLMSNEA

EC50 (M), STAT3-Luc reporter, CTLL2/STAT3-Luc cells [1]: 5.56e-11 M
Fold induction at 6.25 nM, STAT3-Luc reporter, CTLL2/STAT3-Luc cells [1]: 12.2 fold
Max fold induction, STAT3-Luc reporter, CTLL2/STAT3-Luc cells [1]: 12.4 fold
EC50 (M), STAT3-Luc reporter, CTLL2/STAT3-Luc cells [2]: 3.46e-11 M
Fold induction at 20 nM, STAT3-Luc reporter, CTLL2/STAT3-Luc cells [2]: 18.8 fold
Max fold induction, STAT3-Luc reporter, CTLL2/STAT3-Luc cells [2]: 19.1 fold
EC50 (M), STAT3-Luc reporter, CTLL2/STAT3-Luc cells [3]: 3.71e-10 M
Max fold induction, STAT3-Luc reporter, CTLL2/STAT3-Luc cells [3]: 17.8 fold
B1: Recomb mIL12 (ligand, mouse)
chain 1: MWELEKDVYVVEVDWTPDAPGETVNLTCDTPEEDDITWTSDQRHGVIGSGKTLTITVKEFLDAGQYTCHKGGETLSHSHLLLHKKENGIWSTEILKNFKNKTFLKCEAPNYSGRFTCSWLVQRNMDLKFNIKSSSSSPDSRAVTCGMASLSAEKVTLDQRDYEKYSVSCQEDVTCPTAEETLPIELALEARQQNKYENYSTSFFIRDIIKPDPPKNLQMKPLKNSQVEVSWEYPDSWSTPHSYFSLKFFVRIQRKKEKMKETEEGCNQKGAFLVEKTSTEVQCKGGNVCVQAQDRYYNSSCSKWACVPCRVRS
chain 2: RVIPVSGPARCLSQSRNLLKTTDDMVKTAREKLKHYSCTAEDIDHEDITRDQTSTLKTCLPLELHKNESCLATRETSSTTRGSCLPPQKTSLMMTLCLGSIYEDLKMYQTEFQAINAALQNHNHQQIILDKGMLVAIDELMQSLNHNGETLRQKPPVGEADPYRVKMKLCILLHAFSTRVVTINRVMGYLSSA

From US20250066441A1
